Target: O型FMDV流行毒株 (Foot-and-mouth disease virus serotype O)
Test: cell-based or functional assay

B1: O型口蹄疫病毒中和抗体Ab1 (VHH)
VHH: QVQLQESGGGLVQPGGSLRLSCAASGTPFSGGSINEISINHLGWYRQAPGKERELVAAITRGGSTYYADSVKGRFAISRDDAKKMVYLQMNSLKPEDTAVYYCNGLRASTAQWEESETTWGQGTQVTVSS
Question: Which Neu 50 (病毒中和试验) does the source give for B1 here?
Answer: 0.8 µmol/L

Source: patent publication CN118050507A
